Results as given in the Immune Epitope Database (IEDB).

Columns and labels:
[1] = target: HLA-B*35:01; assay: IEDB peptide-MHC binding, purified MHC/competitive/radioactivity; filed as Kd, often an IC50 or EC50 that approximates it; ≥ and ≤ were set here for values at or beyond the usual limits of such assays; settings: source organism: Dengue virus 4 Philippines/H241/1956
[2] = target: HLA-A*01:01; assay: as above
[3] = target: HLA-A*03:01; assay: as above; settings: source organism: SARS coronavirus Tor2
[4] = target: HLA-A*11:01; assay: as above; settings: source organism: SARS coronavirus Tor2
[5] = target: HLA-A*23:01; assay: as above
[6] = target: HLA-A*24:02; assay: as above
[7] = target: HLA-A*26:01; assay: as above
[8] = target: HLA-A*29:02; assay: as above
[9] = target: HLA-A*30:02; assay: as above
[10] = target: HLA-A*31:01; assay: as above; settings: source organism: SARS coronavirus Tor2
[11] = target: HLA-A*33:01; assay: as above; settings: source organism: SARS coronavirus Tor2
[12] = target: HLA-A*68:01; assay: as above; settings: source organism: SARS coronavirus Tor2
[13] = target: HLA-B*15:01; assay: as above
[14] = target: HLA-A*26:01; assay: IEDB peptide-MHC binding, purified MHC/direct/fluorescence; filed as Kd, often an IC50 or EC50 that approximates it; ≥ and ≤ were set here for values at or beyond the usual limits of such assays; settings: source organism: Salmonella enterica subsp. enterica serovar Typhimurium
[15] = target: HLA-B*40:01; assay: IEDB peptide-MHC binding, purified MHC/competitive/radioactivity; filed as Kd, often an IC50 or EC50 that approximates it; ≥ and ≤ were set here for values at or beyond the usual limits of such assays
[16] = target: HLA-B*51:01; assay: as above
[17] = target: HLA-A*24:02; assay: IEDB peptide-MHC binding, purified MHC/competitive/fluorescence; ≥ and ≤ were set here for values at or beyond the usual limits of such assays
[18] = target: HLA-A*02:01; assay: as above; settings: source organism: Zaire ebolavirus
[19] = target: HLA-B*15:01; assay: IEDB peptide-MHC binding, purified MHC/competitive/fluorescence; filed as Kd, often an IC50 or EC50 that approximates it; ≥ and ≤ were set here for values at or beyond the usual limits of such assays
[20] = target: HLA-B*08:01; assay: IEDB peptide-MHC binding, purified MHC/competitive/radioactivity; filed as Kd, often an IC50 or EC50 that approximates it; ≥ and ≤ were set here for values at or beyond the usual limits of such assays; settings: source organism: Vaccinia virus WR
[21] = source organism: SARS coronavirus Tor2
[22] = source organism: Vaccinia virus WR
[23] = source organism: Lymphocytic choriomeningitis virus (strain Armstrong)
[24] = source organism: Dengue virus 3 Martinique/1243/1999
[25] = source organism: Zaire ebolavirus
[26] = source organism: Dengue virus 4 Philippines/H241/1956
[27] = source organism: Mammarenavirus juninense
[28] = source organism: Mammarenavirus guanaritoense
[29] = source organism: Dengue virus 1 Brazil/97-11/1997

MAVLFVVTL was tested, and the Kd [1] was 359 nM.

In the case of SMMGFKMNY, the Kd [2, 21] is reported as 3960 nM, the Kd [3] is reported as 4.89 nM and the Kd [4] is reported as 10.6 nM. The Kd [5, 21] was 7550 nM, the Kd [6, 21] was 9360 nM and the Kd [7, 21] was 3900 nM. For the same sequence, the Kd [8, 21] was 13.9 nM, the Kd [9, 21] was 10.3 nM and the Kd [10] was 213 nM. For the same sequence, the Kd [11] was 775 nM and the Kd [12] was 10600 nM.

TLDESFLGRY gave a Kd [2, 21] of 5.66 nM, a Kd [5, 21] of no less than 70000 nM and a Kd [6, 21] of no less than 70300 nM. The Kd [7, 21] was 132 nM, the Kd [8, 21] was 155 nM and the Kd [9, 21] was 8.32 nM.

Sequence IIIPFIAYF has a Kd [13, 22] of 1.59 nM.

In the case of RVKLGLGIM, the Kd [14] is reported as 1300 nM.

VEDSRFWEL was tested, and the Kd ([15]; source organism: Dengue virus 2 Jamaica/1409/1983) was 4280 nM.

AFKVPGVKTV showed a Kd [2, 23] of no less than 70400 nM, a Kd [5, 23] of no less than 70000 nM and a Kd [6, 23] of no less than 70300 nM. The Kd [7, 23] was no less than 69700 nM, the Kd [8, 23] was 6960 nM and the Kd [9, 23] was 6590 nM.

Sequence SPTVEESRTI has a Kd [16, 24] of 3780 nM.

With EGIYIEGLM the IC50 [17, 25] was no less than 154000 nM.

With MADQAMTQMY the Kd [2, 21] was 18.4 nM, the Kd [5, 21] was no less than 70000 nM and the Kd [6, 21] was no less than 70300 nM. It also gave a Kd [7, 21] of 2830 nM, a Kd [8, 21] of 9.75 nM and a Kd [9, 21] of 127 nM.

Sequence LIVMDEAHF has a Kd [13, 26] of 30.9 nM.

With AGSKYIHCF the Kd [2, 27] was 808 nM, the Kd [5, 27] was no less than 21400 nM and the Kd [6, 27] was 5370 nM. It also gave a Kd [7, 27] of no less than 77900 nM, a Kd [8, 27] of no less than 78900 nM and a Kd [9, 27] of 6500 nM.

IMSKDKPTI gave an IC50 ([17]; source organism: West Nile virus) of 1980 nM.

In the case of REPVNATED, the IC50 [18] is reported as no less than 383000 nM and the IC50 [17, 25] is reported as 12700 nM.

Sequence KVKSCLCSF has a Kd [13, 22] of 16.6 nM.

QLAMTDTTPF gave a Kd [13, 26] of 2.34 nM.

SLKSLYEAF was tested, and the Kd [13, 22] was 20.3 nM.

Sequence FFQVIAKRY has a Kd ([19]; source organism: Yersinia pestis Antiqua) of no less than 20000 nM.

In the case of LFVTIYSHL, the Kd [2, 21] is reported as 3760 nM, the Kd [5, 21] is reported as 9.22 nM and the Kd [6, 21] is reported as 132 nM. It also gave a Kd [7, 21] of 1100 nM, a Kd [8, 21] of 1420 nM and a Kd [9, 21] of no less than 47400 nM.

GMMDGWYGF gave a Kd ([19]; source organism: Influenza A virus (A/Queensland/11/2001(H3N2))) of 21.9 nM.

MGLNYKLTF was tested, and the Kd [13, 22] was 3540 nM.

For LECSPRTGL, the Kd [15, 24] was 599 nM.

In the case of TDSPETHHY, the Kd [2, 28] is reported as 16800 nM, the Kd [5, 28] is reported as no less than 77700 nM and the Kd [6, 28] is reported as no less than 77500 nM. The Kd [7, 28] was no less than 77900 nM, the Kd [8, 28] was no less than 78900 nM and the Kd [9, 28] was 9320 nM.

KPWDVIPMV gave a Kd [16, 29] of 1110 nM.

LPLPWTSGA showed a Kd [16, 29] of 926 nM.

ESKMSFLPI was tested, and the Kd [20] was 1.06 nM and the Kd [13, 22] was 358 nM.
